The source of these data is publication PMC3129213.

One experiment concerns the target CRD from SRCL (UniProt Q5KU26). Kind of experiment: radioligand binding.
Experiment [1] deals with Lactoferrin from human neutrophils (human). Kind of experiment: SPR.

Chain of UniProt Q5KU26 (Q5KU26 whole entry): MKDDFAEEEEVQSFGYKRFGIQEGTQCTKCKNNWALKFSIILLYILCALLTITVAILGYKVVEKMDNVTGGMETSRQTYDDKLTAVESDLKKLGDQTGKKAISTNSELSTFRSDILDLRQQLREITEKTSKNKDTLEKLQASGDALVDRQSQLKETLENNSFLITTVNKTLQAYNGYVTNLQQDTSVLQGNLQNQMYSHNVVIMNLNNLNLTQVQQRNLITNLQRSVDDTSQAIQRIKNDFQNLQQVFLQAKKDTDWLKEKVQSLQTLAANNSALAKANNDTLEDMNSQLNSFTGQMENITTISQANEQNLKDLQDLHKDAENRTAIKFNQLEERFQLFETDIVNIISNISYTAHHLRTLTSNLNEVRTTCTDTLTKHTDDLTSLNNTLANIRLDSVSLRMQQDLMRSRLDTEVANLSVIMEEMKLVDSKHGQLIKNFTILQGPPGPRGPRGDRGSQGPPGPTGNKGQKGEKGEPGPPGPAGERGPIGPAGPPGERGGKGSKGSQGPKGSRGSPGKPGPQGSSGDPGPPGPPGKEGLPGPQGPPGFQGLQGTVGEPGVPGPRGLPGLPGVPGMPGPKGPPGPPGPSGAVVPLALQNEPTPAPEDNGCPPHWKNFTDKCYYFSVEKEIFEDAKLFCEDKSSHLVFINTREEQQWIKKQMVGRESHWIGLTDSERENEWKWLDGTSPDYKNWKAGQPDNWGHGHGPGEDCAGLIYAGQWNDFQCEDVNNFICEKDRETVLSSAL

For the substance “Lactoferrin from human neutrophils (natural protein)”, the Ki in the experiment with CRD from SRCL came to 6.1 µM. “CRD from SRCL (from UniProt Q5KU26 1-742) (domain or fragment)” came in with a Kd in experiment [1] of 4.7 µM.

Broadly, the Ki is a dissociation constant, usually derived from enzyme kinetics or from competition with a known ligand. High values mean lower affinity, low ones higher affinity. One may read the Kd as the constant that tells how readily two partners part at equilibrium. A higher Kd goes with lower affinity.
